Laboratory results as given in IntAct's records for PubMed 28164238.

B1: T-box transcription factor TBX5 (Mus musculus), P70326 (parent)
chain: MADTDEGFGLARTPLEPDSKDRSCDSKPESALGAPSKSPSSPQAAFTQQGMEGIKVFLHERELWLKFHEVGTEMIITKAGRRMFPSYKVKVTGLNPKTKYILLMDIVPADDHRYKFADNKWSVTGKAEPAMPGRLYVHPDSPATGAHWMRQLVSFQKLKLTNNHLDPFGHIILNSMHKYQPRLHIVKADENNGFGSKNTAFCTHVFPETAFIAVTSYQNHKITQLKIENNPFAKGFRGSDDLELHRMSRMQSKEYPVVPRSTVRHKVTSNHSPFSSETRALSTSSNLGSQYQCENGVSGPSQDLLPPPNPYPLAQEHSQIYHCTKRKDEECSSTEHPYKKPYMETSPSEEDTFYRSGYPQQQGLSTSYRTESAQRQACMYASSAPPSEPVPSLEDISCNTWPSMPSYSSCTVTTVQPMDRLPYQHFSAHFTSGPLVPRLAGMANHGSPQLGEGMFQHQTSVAHQPVVRQCGPQTGLQSPGGLQPPEFLYTHGVPRTLSPHQYHSVHGVGMVPEWSENS

Columns and labels:
[1] = variants of: B1; conditions: with klf13_mouse Klf13, Q9JJZ6
klf13_mouse Klf13, Q9JJZ6, sequence (Q9JJZ6 whole entry): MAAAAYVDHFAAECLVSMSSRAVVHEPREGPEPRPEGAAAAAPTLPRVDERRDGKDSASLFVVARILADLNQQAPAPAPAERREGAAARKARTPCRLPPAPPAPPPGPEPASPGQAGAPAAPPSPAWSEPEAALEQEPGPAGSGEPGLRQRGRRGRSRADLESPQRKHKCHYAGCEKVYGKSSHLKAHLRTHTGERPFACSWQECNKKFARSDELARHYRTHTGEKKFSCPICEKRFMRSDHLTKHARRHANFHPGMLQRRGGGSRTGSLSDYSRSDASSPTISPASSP

[2] = variants of: B1; conditions: with nkx25_mouse Nkx2-5, P42582
nkx25_mouse Nkx2-5, P42582, sequence (P42582 whole entry): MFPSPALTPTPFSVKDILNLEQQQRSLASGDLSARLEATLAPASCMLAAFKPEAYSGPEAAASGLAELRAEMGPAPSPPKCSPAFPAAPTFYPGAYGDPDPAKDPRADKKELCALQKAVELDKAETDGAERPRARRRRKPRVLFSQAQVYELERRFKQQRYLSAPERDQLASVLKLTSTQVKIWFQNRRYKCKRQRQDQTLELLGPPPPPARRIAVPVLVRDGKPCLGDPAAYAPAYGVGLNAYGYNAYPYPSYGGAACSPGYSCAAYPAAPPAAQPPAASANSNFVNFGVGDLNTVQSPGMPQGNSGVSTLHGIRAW

| effect of a mutation on the interaction [1] | effect of a mutation on the interaction [2] | Variant |
| --- | --- | --- |
| decreasing interaction strength | decreasing interaction strength | MADTDEGFGLARTPLEPDSKDRSCDSKPESALGAPSKSPSSPQAAFTQQGMEGIKVFLHERELWLKFHEVGTEMIITKAQRRMFPSYKVKVTGLNPKTKYILLMDIVPADDHRYKFADNKWSVTGKAEPAMPGRLYVHPDSPATGAHWMRQLVSFQKLKLTNNHLDPFGHIILNSMHKYQPRLHIVKADENNGFGSKNTAFCTHVFPETAFIAVTSYQNHKITQLKIENNPFAKGFRGSDDLELHRMSRMQSKEYPVVPRSTVRHKVTSNHSPFSSETRALSTSSNLGSQYQCENGVSGPSQDLLPPPNPYPLAQEHSQIYHCTKRKDEECSSTEHPYKKPYMETSPSEEDTFYRSGYPQQQGLSTSYRTESAQRQACMYASSAPPSEPVPSLEDISCNTWPSMPSYSSCTVTTVQPMDRLPYQHFSAHFTSGPLVPRLAGMANHGSPQLGEGMFQHQTSVAHQPVVRQCGPQTGLQSPGGLQPPEFLYTHGVPRTLSPHQYHSVHGVGMVPEWSENS [G80Q] |
| decreasing interaction strength | decreasing interaction strength | MADTDEGFGLARTPLEPDSKDRSCDSKPESALGAPSKSPSSPQAAFTQQGMEGIKVFLHERELWLKFHEVGTEMIITKVGRRMFPSYKVKVTGLNPKTKYILLMDIVPADDHRYKFADNKWSVTGKAEPAMPGRLYVHPDSPATGAHWMRQLVSFQKLKLTNNHLDPFGHIILNSMHKYQPRLHIVKADENNGFGSKNTAFCTHVFPETAFIAVTSYQNHKITQLKIENNPFAKGFRGSDDLELHRMSRMQSKEYPVVPRSTVRHKVTSNHSPFSSETRALSTSSNLGSQYQCENGVSGPSQDLLPPPNPYPLAQEHSQIYHCTKRKDEECSSTEHPYKKPYMETSPSEEDTFYRSGYPQQQGLSTSYRTESAQRQACMYASSAPPSEPVPSLEDISCNTWPSMPSYSSCTVTTVQPMDRLPYQHFSAHFTSGPLVPRLAGMANHGSPQLGEGMFQHQTSVAHQPVVRQCGPQTGLQSPGGLQPPEFLYTHGVPRTLSPHQYHSVHGVGMVPEWSENS [A79V] |
| with no effect | with no effect | MADTDEGFGLARTPLEPDSKDRSCDSKPESALGAPSKSPSSPQAAFTQQGMEGTKVFLHERELWLKFHEVGTEMIITKAGRRMFPSYKVKVTGLNPKTKYILLMDIVPADDHRYKFADNKWSVTGKAEPAMPGRLYVHPDSPATGAHWMRQLVSFQKLKLTNNHLDPFGHIILNSMHKYQPRLHIVKADENNGFGSKNTAFCTHVFPETAFIAVTSYQNHKITQLKIENNPFAKGFRGSDDLELHRMSRMQSKEYPVVPRSTVRHKVTSNHSPFSSETRALSTSSNLGSQYQCENGVSGPSQDLLPPPNPYPLAQEHSQIYHCTKRKDEECSSTEHPYKKPYMETSPSEEDTFYRSGYPQQQGLSTSYRTESAQRQACMYASSAPPSEPVPSLEDISCNTWPSMPSYSSCTVTTVQPMDRLPYQHFSAHFTSGPLVPRLAGMANHGSPQLGEGMFQHQTSVAHQPVVRQCGPQTGLQSPGGLQPPEFLYTHGVPRTLSPHQYHSVHGVGMVPEWSENS [I54T] |
